The values that follow are results of earlier work, collected in paper PMC2706832.

In data set [1] the target is CCL7 (Homo sapiens) (UniProt P80098).
Data set [2] has as its target CCL14 9-74 (Homo sapiens) (UniProt Q16627). The experiment in a line: competition with CCL5.

CCR1, sequence (P32246 whole entry): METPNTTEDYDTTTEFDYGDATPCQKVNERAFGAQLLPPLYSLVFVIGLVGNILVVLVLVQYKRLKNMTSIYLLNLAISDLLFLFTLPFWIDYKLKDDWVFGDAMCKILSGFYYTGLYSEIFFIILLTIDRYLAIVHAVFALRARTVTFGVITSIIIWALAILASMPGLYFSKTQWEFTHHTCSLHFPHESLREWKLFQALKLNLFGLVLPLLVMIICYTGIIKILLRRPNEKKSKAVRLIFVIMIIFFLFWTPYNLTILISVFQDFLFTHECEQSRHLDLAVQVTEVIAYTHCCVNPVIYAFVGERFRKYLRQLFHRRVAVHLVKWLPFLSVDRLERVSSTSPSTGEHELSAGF
CCL7 (Homo sapiens), sequence (P80098 24-99): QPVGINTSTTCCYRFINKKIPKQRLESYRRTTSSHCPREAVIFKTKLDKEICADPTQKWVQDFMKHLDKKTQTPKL
CCL14 9-74 (Homo sapiens), sequence (Q16627 9-74): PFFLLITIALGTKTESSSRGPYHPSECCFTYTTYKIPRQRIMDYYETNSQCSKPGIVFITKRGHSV

CCR1 (from UniProt P32246): the Kd (as a rule, the equilibrium constant for the complex coming apart) in data set [1] was 1 nM. Moreover, the Ki (in general, a dissociation constant, usually derived from enzyme kinetics or from competition with a known ligand) in data set [2] was 0.023 nM.
